The numbers were not newly measured in patent US11040110B2, “Polypeptide complex comprising non-peptidyl polymer having three functional ends” (HANMI SCIENCE CO., LTD., priority 2008, dated 2021), which cites them from elsewhere.

For the data set the following is noted: Osborn et al. 2002.

Regarding interferon alpha, the serum half-life was 5 h.
